This is an account of results in patent US20260055369A1, “METHOD FOR GENERATING CELLS OF THE T CELL LINEAGE WITH ENGINEERING BROADLY REACTIVE HUMAN NOTCH LIGAND” (H. Lee Moffitt Cancer Center and Research Institute, Inc., priority 2022, published 2026).

Test [1] relates to Notch1. The test is described as follows: Kinetics for Notch activation assay (time course, CHO-K1 N1-Gal4). It counts as cell-based. The note with it: immobilized at 50 nM; most pronounced in first 4 to 8 hours. Here is the method: 96-well tissue culture plates (Coastar) were pre-coated using ligand-oriented coupling as described above with 50 nM of DLL4 biotinylated variants. CHO-K1 N1-Gal4 reporter cells were detached with trypsin-EDTA, washed with DPBS, and 200 μL of α-MEM media containing 30,000 cells were added into wells. Notch activation was analyzed as end-points for 0, 4, 8, 12, 16, 20, and 24-hour measurements. Desired time point wells containing CHO-K1 N1-Gal4 reporter cells were washed once with 200 μL DPBS, detached with trypsin-EDTA, and quenched with 200 μL of α-MEM media. Next, reporter cells were resuspended and analyzed by flow cytometry reading the fluorescence of H2B-mCitrine (BD Accuri C6 Plus). Every time point represents the mean fluorescence intensity of Notch activation as percentage+s.d. of three independent biological replicates. Notch activation was reference-subtracted from a well containing streptavidin, BSA and CHO-K1 N1-Gal4 cells.
Target sequence in this assay (P46531 295-488 limits assumed): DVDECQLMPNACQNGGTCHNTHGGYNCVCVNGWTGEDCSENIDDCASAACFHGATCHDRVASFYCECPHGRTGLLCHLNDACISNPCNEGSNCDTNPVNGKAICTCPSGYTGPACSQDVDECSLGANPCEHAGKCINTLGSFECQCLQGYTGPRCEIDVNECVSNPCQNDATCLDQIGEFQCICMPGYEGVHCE

For test [2], the system named is CD8+ T cells. Put plainly: Quantitative real-time PCR of activation markers in CD8+ T cells. It counts as cell-based, human. The settings on record: K32 loaded with 0.0125 μg/mL OKT3, over four days. As for the experimental part: Human CD8^+ T cells were co-cultured with K32-DLL4 cells for 96 hours and positively enriched by MACS column (Invitrogen Kit). Total RNA was isolated from CD8^+ T cells using TRIzol (Life Technologies). Reverse transcription reaction was performed using Verso cDNA Synthesis Kit (Thermo Scientific). Quantitative PCR reactions were prepared by using Bio-Rad SYBR green master mix and performed on an Applied Biosystems thermocycler (7900 HT). Relative expression was calculated using the ΔΔCt method and normalized to B2M levels. The data represent the mean quantity of mRNA (in-fold) for different T cell markers±s.e.m. of four independent biological replicates. Pair primers used were: […]

Test [3] relates to CD8+ T cells. The test is described as follows: Co-culture assay for IFNγ in T cells (K32 aAPCs expressing ligand). It counts as cell-based, human. The note with it: 96 h, P=0.047. Here is the method: (§1) Functional assays for human CD8^+ T cells were performed in co-culture with K562 cells expressing human CD32 (K32 cells) generated as described before7. Briefly, cells were γ-irradiated (100Gy) and washed twice with PBS before being loaded with OKT3 (0.0125-0.5 μg/mL, BioXcell) antibody at RT for 10 min. Human CD8^+ T cells were negatively isolated from PBMC and labeled with 5 μM of Cell Trace Violet (Invitrogen) according to manufacturer's specifications. Next, CD8^+ T cells were co-cultured with K32 cells at ratio 1:10 (T cell:K32). The frequency of proliferating T cells was determined after 96 hours by flow cytometry using a CytoFLEX II (Beckman Coulter). Zombie Green (Biolegend) was used for life/dead cell staining to discard dead cells from the analysis. A set of samples were additionally incubated with Golgi stop (BD) at 0.5 μL/well for 5 hours and washed with PBS for detection of intracellular IFNγ using anti-hIFNγ APC antibody (Biolegend). The frequency of IFNγ positive cells was analyzed by flow cytometry (CytoFLEX II, Beckman Coulter). Dead cells were excluded from the analysis by staining with Zombie green (Biolegend). The data represent the mean percentage of proliferating T cells or IFNγ^+ T cells±s.e.m. of four independent biological replicates.

The test system of test [4] is Notch2. The test is described as follows: U2OS luciferase reporter assay, ligands on streptavidin plates. The class given is cell-based, human. The settings on record: 50 nM immobilized. As for the experimental part: (§2) For U2OS reporter cells, approximately 5×10E5 cells were plated into 6-well plates (Falcon) and let to adhere overnight at 37° C., 5% CO2 in DMEM media (Cytiva). On day two, media was replaced with serum-free DMEM and cells transfected with luciferase vectors. Cationic lipoplexes were generated for 15 min at room temperature by mixing 10 μL of Lipofectamine 2000 (Invitrogen), 2.5 μg of Gal4-firefly luciferase reporter, and 50 ng of pRL-TK Renilla luciferase vector as internal control (ratio 1:5, Lipo:DNA). On day three, streptavidin plates were coupled with DLL4 ligands like described above using 10-fold serial dilutions starting at 50 nM, and transfected U2OS cells were detached with Trypsin-EDTA, washed with DPBS, and counted in the microscope. Twenty-thousand reporter cells were added to wells using 200 μL of DMEM media containing 2 μg/mL of doxycycline (Sigma) to induce Notch-Gal4 expression. Next, signaling plates were incubated for 24 hours at 37° C. and 5% CO2. On day four, luciferase firefly and Renilla signals were determined with Dual-Glo luciferase assay system (Promega) using a GloMax luminometer (Promega). A luminescence ratio firefly:Renilla was determined for every well and normalized to the signal of a non-related control protein (PA domain of RNF128). Notch activation is represented as the mean fold-change over the control±s.d. of three independent biological replicates.
Chain of Notch2 (Q04721 221-530 limits assumed): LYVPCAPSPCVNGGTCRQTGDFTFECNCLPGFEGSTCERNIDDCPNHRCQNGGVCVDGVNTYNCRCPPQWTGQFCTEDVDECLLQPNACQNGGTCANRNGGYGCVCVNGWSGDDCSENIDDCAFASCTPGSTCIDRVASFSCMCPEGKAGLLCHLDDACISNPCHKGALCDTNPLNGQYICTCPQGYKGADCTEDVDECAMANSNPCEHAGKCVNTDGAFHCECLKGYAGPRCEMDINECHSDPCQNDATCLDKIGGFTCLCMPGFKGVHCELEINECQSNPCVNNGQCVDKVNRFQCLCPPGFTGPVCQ
In general terms: Reporter assays use an easily measured gene product as a stand-in for the process of interest.

Test [5] has as its system Notch3. Described as above. It counts as cell-based, human. The settings on record: 50 nM immobilized. Here is the method: as §2
Test [6] relates to Notch1. The description is as above. It counts as cell-based, human. The settings on record: 50 nM immobilized. Here is the method:
as §2
Target sequence in this assay (P46531 19-1664 limits assumed): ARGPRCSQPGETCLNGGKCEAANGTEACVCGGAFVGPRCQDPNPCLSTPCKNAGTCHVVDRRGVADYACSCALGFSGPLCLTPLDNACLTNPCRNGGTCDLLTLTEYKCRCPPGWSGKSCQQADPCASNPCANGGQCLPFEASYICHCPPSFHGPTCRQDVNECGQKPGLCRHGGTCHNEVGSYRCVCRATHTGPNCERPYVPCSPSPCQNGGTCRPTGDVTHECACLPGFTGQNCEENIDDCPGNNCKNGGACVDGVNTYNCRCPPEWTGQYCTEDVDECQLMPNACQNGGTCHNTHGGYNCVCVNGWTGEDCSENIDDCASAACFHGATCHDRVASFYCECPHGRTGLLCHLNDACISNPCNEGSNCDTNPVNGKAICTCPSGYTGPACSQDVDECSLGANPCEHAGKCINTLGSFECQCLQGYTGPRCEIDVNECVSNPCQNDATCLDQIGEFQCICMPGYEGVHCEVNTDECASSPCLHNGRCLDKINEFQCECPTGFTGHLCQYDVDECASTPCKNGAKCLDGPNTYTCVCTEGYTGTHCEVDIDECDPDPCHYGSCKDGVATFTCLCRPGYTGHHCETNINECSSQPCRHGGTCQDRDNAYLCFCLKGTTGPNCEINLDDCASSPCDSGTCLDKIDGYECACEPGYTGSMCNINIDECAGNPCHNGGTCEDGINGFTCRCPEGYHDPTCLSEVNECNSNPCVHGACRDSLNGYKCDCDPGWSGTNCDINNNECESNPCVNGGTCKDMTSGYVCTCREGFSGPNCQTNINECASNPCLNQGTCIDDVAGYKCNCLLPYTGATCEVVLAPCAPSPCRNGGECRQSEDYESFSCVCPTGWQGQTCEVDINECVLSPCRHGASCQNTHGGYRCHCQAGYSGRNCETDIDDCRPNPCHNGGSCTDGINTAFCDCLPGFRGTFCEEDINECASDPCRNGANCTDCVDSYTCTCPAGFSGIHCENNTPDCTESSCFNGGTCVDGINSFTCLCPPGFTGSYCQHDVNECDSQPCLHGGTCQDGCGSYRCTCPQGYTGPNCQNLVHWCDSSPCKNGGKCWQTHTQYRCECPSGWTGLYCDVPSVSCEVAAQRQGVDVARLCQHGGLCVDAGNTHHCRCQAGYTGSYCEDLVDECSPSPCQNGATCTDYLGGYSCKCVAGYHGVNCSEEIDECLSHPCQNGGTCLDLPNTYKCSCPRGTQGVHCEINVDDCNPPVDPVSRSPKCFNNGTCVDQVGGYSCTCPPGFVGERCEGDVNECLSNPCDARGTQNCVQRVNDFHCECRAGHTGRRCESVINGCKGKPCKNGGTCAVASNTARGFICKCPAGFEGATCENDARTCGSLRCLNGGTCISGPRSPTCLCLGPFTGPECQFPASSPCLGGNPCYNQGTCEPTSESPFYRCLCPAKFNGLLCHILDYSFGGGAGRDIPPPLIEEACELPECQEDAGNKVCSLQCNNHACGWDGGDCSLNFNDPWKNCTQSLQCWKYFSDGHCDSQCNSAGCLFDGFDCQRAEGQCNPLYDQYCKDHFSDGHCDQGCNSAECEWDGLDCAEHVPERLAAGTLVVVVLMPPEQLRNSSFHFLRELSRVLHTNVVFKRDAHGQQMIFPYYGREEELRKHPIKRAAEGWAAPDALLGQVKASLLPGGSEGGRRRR
Target sequence in this assay (P46531 1665-1756 limits assumed): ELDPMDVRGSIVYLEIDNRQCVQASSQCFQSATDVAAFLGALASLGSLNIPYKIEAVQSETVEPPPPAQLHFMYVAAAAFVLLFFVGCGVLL

The target of test [7] is T1, endogenous Notch1 (Homo sapiens, UniProt P46531).
T1 construct: cells expressing endogenous levels of Notch1; endogenous in cells; host or cells: U2OS; MCF-7
T1 sequence (P46531 19-2555): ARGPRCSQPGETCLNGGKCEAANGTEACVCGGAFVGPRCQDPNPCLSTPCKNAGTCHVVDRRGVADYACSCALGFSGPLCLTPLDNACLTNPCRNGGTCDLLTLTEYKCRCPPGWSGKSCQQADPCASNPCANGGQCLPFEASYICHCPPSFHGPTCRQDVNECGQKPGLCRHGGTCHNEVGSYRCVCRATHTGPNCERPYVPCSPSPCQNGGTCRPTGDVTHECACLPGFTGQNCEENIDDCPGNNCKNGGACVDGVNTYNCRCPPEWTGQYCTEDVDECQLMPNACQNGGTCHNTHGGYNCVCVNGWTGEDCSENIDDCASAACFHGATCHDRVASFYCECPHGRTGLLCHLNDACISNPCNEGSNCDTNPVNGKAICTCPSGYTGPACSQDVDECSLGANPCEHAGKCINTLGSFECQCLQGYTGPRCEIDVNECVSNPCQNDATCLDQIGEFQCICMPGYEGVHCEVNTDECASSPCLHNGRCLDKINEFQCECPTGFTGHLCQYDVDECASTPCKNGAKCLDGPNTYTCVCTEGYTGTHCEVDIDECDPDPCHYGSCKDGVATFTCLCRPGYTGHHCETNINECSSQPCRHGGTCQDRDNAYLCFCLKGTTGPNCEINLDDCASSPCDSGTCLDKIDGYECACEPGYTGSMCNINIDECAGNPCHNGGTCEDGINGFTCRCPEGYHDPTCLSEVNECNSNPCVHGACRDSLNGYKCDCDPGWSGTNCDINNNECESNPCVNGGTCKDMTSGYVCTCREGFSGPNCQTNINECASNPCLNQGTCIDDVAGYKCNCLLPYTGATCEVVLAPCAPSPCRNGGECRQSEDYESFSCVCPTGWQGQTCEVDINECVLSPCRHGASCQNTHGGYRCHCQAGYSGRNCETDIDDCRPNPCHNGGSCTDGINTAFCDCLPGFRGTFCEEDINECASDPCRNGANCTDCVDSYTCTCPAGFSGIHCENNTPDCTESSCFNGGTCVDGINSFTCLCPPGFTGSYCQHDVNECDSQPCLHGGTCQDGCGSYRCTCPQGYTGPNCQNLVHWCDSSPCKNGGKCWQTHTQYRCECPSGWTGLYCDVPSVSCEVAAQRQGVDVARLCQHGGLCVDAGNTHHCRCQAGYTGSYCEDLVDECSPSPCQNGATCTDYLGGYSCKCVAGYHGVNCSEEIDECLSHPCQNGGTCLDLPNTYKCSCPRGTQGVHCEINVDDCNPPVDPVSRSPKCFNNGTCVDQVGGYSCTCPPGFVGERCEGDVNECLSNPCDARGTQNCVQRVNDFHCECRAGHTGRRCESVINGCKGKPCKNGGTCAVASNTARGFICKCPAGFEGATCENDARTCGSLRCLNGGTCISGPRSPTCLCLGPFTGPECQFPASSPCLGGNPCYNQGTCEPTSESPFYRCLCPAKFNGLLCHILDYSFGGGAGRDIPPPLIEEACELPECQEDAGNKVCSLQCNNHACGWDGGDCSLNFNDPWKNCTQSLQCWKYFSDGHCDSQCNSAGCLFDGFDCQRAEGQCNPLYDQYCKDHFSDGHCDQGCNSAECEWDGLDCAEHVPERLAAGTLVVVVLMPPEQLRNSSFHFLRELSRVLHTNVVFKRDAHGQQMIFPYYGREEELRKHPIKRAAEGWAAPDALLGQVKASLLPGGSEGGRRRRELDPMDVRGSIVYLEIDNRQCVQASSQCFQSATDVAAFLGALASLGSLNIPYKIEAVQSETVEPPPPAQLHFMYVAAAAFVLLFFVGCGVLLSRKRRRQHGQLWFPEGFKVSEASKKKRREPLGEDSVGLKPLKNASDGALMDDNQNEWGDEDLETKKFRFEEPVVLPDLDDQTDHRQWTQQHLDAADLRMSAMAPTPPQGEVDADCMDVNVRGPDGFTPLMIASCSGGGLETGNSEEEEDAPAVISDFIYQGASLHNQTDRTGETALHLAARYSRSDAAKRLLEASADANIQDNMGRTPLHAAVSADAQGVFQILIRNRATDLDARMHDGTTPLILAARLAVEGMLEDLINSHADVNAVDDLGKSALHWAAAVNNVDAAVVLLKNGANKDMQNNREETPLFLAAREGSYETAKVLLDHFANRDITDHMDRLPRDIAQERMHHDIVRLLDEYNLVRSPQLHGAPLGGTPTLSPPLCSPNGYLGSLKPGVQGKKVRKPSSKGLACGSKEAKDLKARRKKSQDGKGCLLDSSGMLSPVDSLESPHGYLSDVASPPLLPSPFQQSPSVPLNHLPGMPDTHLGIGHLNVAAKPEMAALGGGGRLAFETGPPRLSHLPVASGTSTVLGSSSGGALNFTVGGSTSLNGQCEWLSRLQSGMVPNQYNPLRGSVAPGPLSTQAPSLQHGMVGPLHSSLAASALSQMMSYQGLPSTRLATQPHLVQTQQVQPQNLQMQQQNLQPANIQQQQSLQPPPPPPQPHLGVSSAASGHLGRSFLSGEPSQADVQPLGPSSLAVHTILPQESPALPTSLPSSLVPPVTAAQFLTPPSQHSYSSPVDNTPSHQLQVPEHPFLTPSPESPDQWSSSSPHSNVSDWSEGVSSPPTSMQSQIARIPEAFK
The test is described as follows: Western blot for cleaved Notch1 ICD in U2OS and MCF-7 cells. The settings on record: 50 nM C-terminally anchored, 24 hours. It counts as cell-based. Here is the method: For Notch activation in U2OS and MCF-7 cells, WT DLL4 and Delta^MAX biotinylated ligands were immobilized at 50 nM in 6-well streptavidin-coated plates following a scaled-up protocol of the one described before. After 24 hours of stimulation, cells were lysed in Laemmli […] buffer (40% glycerol, 4% SDS, 250 mM Tris-HCl, 0.02% bromophenol blue, and 20% β-mercaptoethanol). Cell lysates were heated at 100° C. for 5 min, centrifuged at 21,000×g for 10 min at 4° C., and supernatants stored at −20° C. Proteins were separated by SDS-PAGE (12% Mini-PROTEAN TGX Precast Protein Gels, Bio-Rad) and transferred to PVDF membranes using an iBlot2 Gel Transfer Device (Thermo Fisher Scientific). The membranes were blocked in 3% BSA+0.1% TBS-Tween. Primary antibodies were anti-cleaved Notch1 (Val1744 rabbit mAb, Cell Signaling Technology, 1:1,000), and β-Actin (rabbit pAb, Cell Signaling Technology, 1:1,000). Secondary antibody anti-Rabbit IgG conjugated to HRP (Goat mAb, Vector Laboratories, 1:8,000) was used for detection of proteins using SuperSignal West Pico PLUS Chemiluminescent Substrate (Thermo Fisher Scientific). Images were acquired using an Amersham Imager 600 (GE Healthcare), and contrast adjusted with a curves layer.
(In general: In western blotting, separated proteins are transferred to a membrane and probed.)

In test [8] the test system is CD8+ T cells. Put plainly: Co-culture assay for T cell proliferation (K32 aAPCs expressing ligand). The note with it: along the OKT3 concentrations, 96 h, vs K32 lacking DLL4 ligands (mock). It counts as cell-based, human. As for the experimental part:
as §1

Chain of Notch3 (Q9UM47 197-505 limits assumed): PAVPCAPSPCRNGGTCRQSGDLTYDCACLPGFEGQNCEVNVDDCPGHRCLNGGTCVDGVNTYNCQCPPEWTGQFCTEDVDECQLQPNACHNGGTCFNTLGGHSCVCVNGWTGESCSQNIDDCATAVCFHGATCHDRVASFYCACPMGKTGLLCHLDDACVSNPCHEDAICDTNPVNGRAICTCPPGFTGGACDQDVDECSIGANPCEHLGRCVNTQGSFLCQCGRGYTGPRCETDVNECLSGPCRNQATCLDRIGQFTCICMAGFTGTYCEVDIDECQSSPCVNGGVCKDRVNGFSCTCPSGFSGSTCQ

B1: Delta^MAX: engineered human DLL4 consensus variant with 10 mutations combining DLL4.v1 and DLL4.v2 mutations; sequence matches SEQ ID NO: 4/10 (protein)
chain: SSVFQLQLQEFINERGVLASGRPCEPGCRTFFRVCLKHFQAVVSPGPCTFGTVSTPVLGTNSFAVRDDSSGGGRNPLQLPLNFTWPGTFSLIIEAWHAPGDDLRPEALPPDALISKFAIQGSLAVGQNWLLDEQTSTLTRLRYSYRVICSDNYYGDNCSRLCKKRNDYFGHYVCQPDGNPSCLPGWTGEYCQQPICLSGCHEQNGYCSKPAECLCRPGWQGRLCNECIPHPGCRHGTCSTPWQCLCDEGWGGLYCDQDLNYCTHHSPCKNGATCRNSGPRSYTCTCRPGYTGVDCELELSECDSNPCRNGGSCKDQEDGYHCLCPPGYYGLHCEHSTLSCADSPCFNGGSCRERNQGANYACECPPNFTGSNCE
Take B1: the “speed of Notch1 activation compared to WT DLL4” value in test [1] is “more rapidly”. Moreover, in test [2], the “Granzyme B mRNA level vs WT DLL4 or mock” value is given as “increased levels”, the “Hes-4 (Notch target) expression vs WT DLL4 or mock” value is reported as “elevated expression” and the “IFNγ mRNA level vs WT DLL4 or mock” value is listed as “increased levels”. In addition, the “increase of IFNγ secretion from CD8+ T cells compared with WT DLL4” value in test [3] is listed as 10-15%. In addition, the “increase in Notch2 signaling vs WT DLL4” value in test [4] is 2.5 fold. In test [5], the “increase in Notch3 signaling vs WT DLL4” value turned out to be 3 fold. The “increase in Notch1 signaling vs WT DLL4” value in test [6] came to 2 fold. In addition, in test [7] (MCF-7 cells), the “Notch1 activation (cleaved Notch1 ICD) vs WT DLL4” value was “much more potently”. The “Notch1 activation (cleaved Notch1 ICD) vs WT DLL4” value in test [7] (U2OS cells) is on record as “much more potently”.

B2: WT DLL4: human wild-type Delta-like 4 (N-EGF5, residues 27-400), SEQ ID NO: 1 (protein)
chain: SGVFQLQLQEFINERGVLASGRPCEPGCRTFFRVCLKHFQAVVSPGPCTFGTVSTPVLGTNSFAVRDDSSGGGRNPLQLPFNFTWPGTFSLIIEAWHAPGDDLRPEALPPDALISKIAIQGSLAVGQNWLLDEQTSTLTRLRYSYRVICSDNYYGDNCSRLCKKRNDHFGHYVCQPDGNLSCLPGWTGEYCQQPICLSGCHEQNGYCSKPAECLCRPGWQGRLCNECIPHNGCRHGTCSTPWQCTCDEGWGGLFCDQDLNYCTHHSPCKNGATCSNSGQRSYTCTCRPGYTGVDCELELSECDSNPCRNGGSCKDQEDGYHCLCPPGYYGLHCEHSTLSCADSPCFNGGSCRERNQGANYACECPPNFTGSNCE
Turning to B2, the “enhancement of the percentage of proliferating CD8+ T cells” value in test [8] is given as “did not show a significant improvement”.
